Reference: the RNAGym collection of RNA variant scans (doi:10.7554/elife.80360)

B1: CPEB3 Ribozyme (parent)
chain: GGGGGCCACAGCAGAAGCGUUCACGUCGCGGCCCCUGUCAGAUUCUGGUGAAUCUGCGAAUUCUGCUGU

Variants of: B1
Experiment: self-cleavage, relative activity (ratio to wild type); higher = more cleavage; co-transcriptional

Variant | self-cleavage
A59U C66A | 0.503
A59U C66G | 0.592
U55G C66G | 0.451
U55C U61G | 0.434
U62A U67G | 0.918
A59C U64C | 0.586
C57A G58C | 0.397
C54A U67G | 0.887
C54A U67C | 0.887
A60C G68A | 0.454
G56U U61G | 0.548
G56U U61C | 0.383
U61G G65C | 0.449
U55G G58U | 0.946
U55C G68A | 0.961
G56C G58U | 0.917
G56C G58A | 0.76
G56C G58C | 0.907
G56A U64G | 0.828
G56A U64C | 0.777
U53G U62G | 0.558
A59C U67G | 0.772
G58C U61C | 0.844
A60G U69A | 0.994

Variant | self-cleavage
A60G U69C | 1.03
U55A U67A | 0.921
U55A U67G | 0.963
C54G U61A | 0.569
C54G U61G | 0.436
G58C U69C | 1.07
U53G U69A | 0.982
U62G U64A | 0.49
U62G U64C | 0.502
A59G U69C | 1.06
U55A G68C | 1.01
C57G C63U | 0.356
C57G C63G | 0.285
U61A C66U | 0.83
U61C U67G | 0.798
U53G G68U | 0.986
G58U U61A | 0.929
U61A G68A | 1.05
U62A U69C | 1.09
A59C G68C | 0.909
G56C C63U | 0.709
G56C C63G | 0.456
G56C C63A | 0.47
C54A A60C | 0.272

Variant | self-cleavage
C54U A60G | 0.903
G58U G65U | 0.948
G58U G65A | 0.961
G56A C66A | 0.702
U61C G68U | 0.893
C54A U69G | 1.01
A60U U69A | 0.536
U62G G65U | 0.455
A59G C66U | 0.979
U62A C63U | 0.705
C57G | 0.354
C57U | 0.375
C57A | 0.346
G56U A60C | 0.368
C57A U61A | 0.428
C57A U61G | 0.402
G56C U64G | 0.533
G56A G58A | 0.905
G56A G58C | 0.971
A60C | 0.359
A60G | 0.954
A60U | 0.526
G56U C57U | 0.322
G56U C57A | 0.291

Variant | self-cleavage
G56A C63A | 0.648
C54U U64C | 0.92
C54U U64G | 0.924
C54U U64A | 0.905
U61A U62A | 0.839
U61C U62G | 0.487
U61C U62A | 0.554
A60C U64C | 0.452
C54U U69A | 1.04
A60G U61C | 0.365
A60U U61A | 0.623
U55C U67G | 0.826
U55C U67A | 0.932
C54G G65C | 0.503
A59G U62A | 0.918
A60U G68C | 0.556
A60U G68A | 0.637
A60U G68U | 0.66
A60G G65C | 0.362
C54A U64G | 0.471
C54U U55G | 0.806
A60U U62G | 0.679
A59G G68C | 1.02
U55G U62G | 0.381

Variant | self-cleavage
U55A A60C | 0.343
C63A G65C | 0.491
U61C C63G | 0.427
U55G G68U | 0.874
U55A U69G | 1
C57A U67A | 0.275
C57A U67C | 0.25
A59C U61A | 0.483
A59C U61G | 0.359
U55A C63U | 0.736
G56A G68U | 1.04
G56A G68C | 0.992
U61G C66U | 0.659
C54G C57U | 0.392
C57U C66U | 0.42
G56U U67A | 0.943
G56U U67G | 0.945
G56U U67C | 0.894
U55C U62C | 0.592
U55C U62A | 0.445
U55G U61A | 0.497
C57A A59C | 0.335
C57U U61A | 0.406
C63A C66U | 0.619

Variant | self-cleavage
C63A C66A | 0.304
C63A C66G | 0.402
G58A U69C | 1.06
A59C C63U | 0.633
A59C C63G | 0.316
C57U A59C | 0.376
G58C G65C | 0.703
U61A C63G | 0.516
A60G U67A | 0.944
C54A G58A | 0.883
G56A A59C | 0.432
U61G U69A | 0.969
U61G U69C | 0.697
C57U G68C | 0.365
A59C C66U | 0.727
U55G U67G | 0.826
U55G U64G | 0.491
A60U G65C | 0.362
C54A G68C | 0.942
C54A G68U | 0.963
A59C A60U | 0.378
U55A U64A | 0.532
C57A G68C | 0.5
C54G C66A | 0.514

Variant | self-cleavage
C54G C66G | 0.533
G58C C66U | 1.02
A60C C66A | 0.288
U55C G56A | 0.996
U55C G56C | 0.583
U55G A59U | 0.394
U55C U64A | 0.567
A59U C63A | 0.377
G58C U64G | 0.893
C57U U62G | 0.327
G56U C66G | 0.552
G56U C66U | 0.872
C54G G68U | 0.993
G56U U64G | 0.753
G56U U64A | 0.612
G56U G65U | 0.468
G56U G65A | 0.47
C54G G58A | 0.849
U55G A60U | 0.291
U55G A60G | 0.552
C54A A59G | 0.858
C54A A59U | 0.497
C54A A59C | 0.365
C57A U64G | 0.384

Variant | self-cleavage
C54A G56C | 0.431
G58U A59G | 1.02
G56A U69A | 1.03
U55G G56C | 0.729
U55G G56U | 0.817
U55C A59G | 0.967
U55C A59C | 0.464
A59C G65A | 0.496
A59C G65U | 0.342
A60G U62A | 0.576
U61G U67G | 0.808
U62G G68C | 0.866
G56C G65A | 0.459
G56C G65C | 0.57
A59G A60C | 0.238
U55C C57U | 0.295
U55C C57G | 0.322
U62A G65U | 0.717
U62A G65C | 0.413
C54U G58U | 1.02
G58U C66G | 0.974
G58A U67G | 0.988
C57G A59C | 0.3
C57U U64C | 0.556

Variant | self-cleavage
C57U U64A | 0.392
G56U G68A | 1.05
G56U G68C | 0.963
G56C A60C | 0.295
C57A A60G | 0.347
C54G G56U | 0.46
G58U U69C | 1.06
G58U U69A | 1.02
A59U U69G | 0.903
A59U U69A | 0.901
A60G U64C | 0.491
A60G U64G | 0.493
A60G U64A | 0.493
A60C U69G | 0.418
A60C U69A | 0.474
G56U U69G | 1.02
U61C G65A | 0.36
C57U C63U | 0.34
U55G U69C | 0.962
A60G G68A | 0.987
A60G G68C | 0.889
A59U U67G | 0.79
G56C A59G | 0.705
G56C A59C | 0.403

Variant | self-cleavage
A60C G65U | 0.308
A60C G65A | 0.438
U55G | 0.881
U55C | 0.937
U55A | 0.96
A60C C63A | 0.405
A60U C66G | 0.405
A60U C66A | 0.403
U55C G65A | 0.588
U55C G65U | 0.495
C54G U64C | 0.542
C54G U64A | 0.63
A60C U61C | 0.355
C57A U62A | 0.32
U55A G58A | 0.927
G56C U62G | 0.59
U61A U69G | 1.02
U61A U69C | 1.06
G58C U67G | 1.01
C54G U69C | 1.04
G58A U64G | 0.955
C57U U69C | 0.554
C57G U69G | 0.473
C57G U69A | 0.381

Variant | self-cleavage
U53G U67A | 0.779
U53G U67C | 0.901
U53G U67G | 0.894
C54G U67A | 0.938
U62G U67G | 0.841
U62G U67C | 0.684
U62C G65A | 0.479
U62C G65U | 0.531
C54A G65C | 0.514
U55A U61C | 0.445
C54U C63U | 1.02
C57U G65U | 0.375
A59C U62A | 0.406
G58A G65U | 0.743
G58A G65C | 0.619
G58A G68C | 0.978
G58A G68U | 0.962
C54G U62C | 0.483
C54G U62G | 0.609
A59U G68A | 0.957
A59U G68U | 0.924
C54G U55A | 0.745
C54G U55G | 0.407
U55G C63U | 0.626

Variant | self-cleavage
G58U A60C | 0.372
U53G U64A | 0.604
G58A U62G | 0.884
G58A U62A | 0.939
G58C U62G | 0.965
C54U U61C | 0.861
C54G A59U | 0.47
C54G C63A | 0.543
C54A U62A | 0.546
A60U U64A | 0.394
A60U U64G | 0.333
U61A U64G | 0.529
U61A U64C | 0.585
U55A C57U | 0.369
U55A C57G | 0.33
U55A C57A | 0.34
G56C G68C | 0.907
C57G A60C | 0.258
U62A U64G | 0.622
U62C C66G | 0.567
U62C C66U | 0.654
U61G U64C | 0.64
A60U U67G | 0.615
A59G G65A | 0.895

Variant | self-cleavage
A59G U61G | 0.941
A59G U61A | 0.916
G58A C63A | 0.748
C54U A59C | 0.678
C57G U62C | 0.288
C57G U62G | 0.448
U61G U62G | 0.71
U61G U62C | 0.873
U61G U62A | 0.871
U62G C66G | 0.442
G56A U61G | 0.676
G56A U61C | 0.617
A59G | 0.997
A59C | 0.788
A59U | 0.854
U55A G65C | 0.491
U55A G65U | 0.421
A59G C63U | 1.01
U53G U55G | 0.386
U61C U69A | 0.946
U62C C63A | 0.753
C57G C66G | 0.39
C57G C66U | 0.333
C54A C66G | 0.466

Variant | self-cleavage
A59G U64G | 0.835
U55C A60U | 0.388
U55C A60G | 0.602
C57A U69C | 0.499
C54U G65U | 0.809
G58U C63A | 0.951
U62A G68U | 0.964
U55G C57A | 0.317
C57A G65C | 0.4
C57A G65U | 0.399
U62A C66U | 0.737
G58A | 0.965
G58U | 0.994
G58C | 0.985
U55A U62A | 0.489
U55A U62C | 0.67
G58C A60U | 0.402
G56U A59C | 0.514
G56U A59U | 0.672
A60C U62A | 0.396
A60C U62C | 0.398
C57G G68U | 0.365
